From the RNAGym collection of RNA variant scans (doi:10.1073/pnas.2313332121) come the findings set out here.

B1: TPR 5TU (parent)
chain: GGAUCUUCUCGAUCUAACAAAAAAGACAAAUCUGCCACAAAGCUUGAGAGCAUCUUCGGAUGCAGAGGCGGCAGCCUUCGGUGGCGCGAUAGCGCCAACGUUCUCAACUAUGACACGCAAAACGCGUGCUCCGUUGAAUGGAGUUUAUCAUG

Variants at the floor of the assay were thinned out.

The variants in the data set derive from B1. In words: polymerase ribozyme fitness, log enrichment relative to wild type (log ratio); higher = more active; in vitro selection for triplet polymerase activity. In outline: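 Genotype fitness is the logarithm of its enrichment divided by wild-type enrichment, using inverse-variance-weighted averages of replicates. That logarithm is base 2. Enrichment was measured by Illumina sequencing of input and output libraries from one triplicate in vitro selection round, with frozen incubation at −7 °C, on PCR-built, transcribed mutant libraries of each subunit of a heterodimeric triplet polymerase ribozyme, retaining genotypes with ≥10 input reads and ≥1 read per output.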
On to GGAUCUUCUCGAUCUGACAAAAAAGACCAAUCUGCAACAAAGCAUGACCGCAUCUUCGGAUGCAGAGGCGGCAGCGCUCGGUGGCGCGAUUGCGCCAACGUUGUCAACUAUGACACGCAAAACGCGUGCUCCGUUGAAUGGAGUUUAUCAUG [A16G A28C C36A U44A G48C A49C C76G U77C A91U C103G], for which the “polymerase ribozyme fitness (log ratio)” value was not above -4.2. The result for GGAUCUUCUCGAUCUAACAAAAAAGACAAAUCUGCCACAAAGCUUGAGAGCAUCUUCGGAUGCAGAGGCGGCAGCCUUCGGUGACGCGAUAGCGCCAGCGUUCUCAACUAUGACACGCAAAACGCGUGCUCCGUUGAAUGGAGUUUAUCAUG [G84A A98G] reads -2.7; that for GGAUCUUCUCGAUCUAACACAAAAGACAAAUCUGCCACAAAGCUUGAGAGCAACUUCGGAUGCAGAGGCGGCAGCCUUCGGUGACGCGAUAGCGCCAACGUUCUCAACUAUGACACGCAAAACGCGUGCUCCGUUGAAUGGAGUUUAUCAUG [A20C U53A G84A], -1.69.

Consider GGAUCUUCUCGAUCUAACAAAAAAGACAAAUCUGCCACAAAGCUUGAGAGCAUCUUCGGAUGCAGAGGCGGCAGCCUUCGGUGGCGCGAUGGCGCCAACGUUCUCAACUAUGACACGGAAAACGCGUGCUCCGUUGAAUGGAGUUUAUCAUG [A91G C118G], for which the “polymerase ribozyme fitness (log ratio)” value is -3.49. The result for GGAUCUUCUCGAUCUAACAAAAAAGACAAAUUUGCCACAAAGCUAGAGAGCAUAUUCGGAUGCAGAGGCGGCAGCCUUCGGUGAAGCGAUAAAGCCAACGUUCUCAACUAUGACACGCAAAACGCGUGCUCCGUUGAAUGGAGUUUAUCAUG [C32U U45A C54A G84A C85A G92A C93A] reads not above -4.2; that for GGAUCUUCUCGAUUUAACAAAAAAGACAAAUCUGCCACAAAGCUUGAGAGCAUCUUCGGAUGCAGAGGCGGCAGCCUUCGGUGGCGCGAUAGCACCAACGUUCUCAACUAUGACACGCAAAACGCGUGCUCCGUUUAAUGGAGUUUAUCAUG [C14U G94A G136U], -3.85. Regarding GGAUCUUCUCGAUCUAACAAAAAAGACAAAUCUGCCACGAGGCUUCAGAGGAUCUACGGCUGCAGAGGCGGUAGCCUUCGGUGGCGCGAUAGCGCCGACGUUCUCAACUACGACACGCAAAACGAGUGCUCCGUUGAAUGGAGUUUAUCAUG [A39G A41G G46C C51G U56A A60C C72U A97G U111C C125A], the “polymerase ribozyme fitness (log ratio)” value was not above -4.2. As for GGAUCUUCUCGAUCUAACAAAAAAGACAAAUCUGCCACAAAGCUUGAGAGCAUCUUCGGAUGUAGAGACGGCAGCCUUCGGUCGCGCGAUAGCGCCAACGUUCUCAACUAUGACCCGCAAAACGCGUGCUCCGUUGAAUGGAGCUUAUAAUG [C63U G68A G83C A115C U144C C149A], the “polymerase ribozyme fitness (log ratio)” value was not above -4.2. The result for GGAUCUUCUCGAUCUAACAAAAAAGACAAAUCUGCCACAAAGCUUGUGAGCAUCAUCGGAUGCAGAGGCGGCAGCCUUCGGUGGCGUGAUAGCGCCAACGUUCUCAACUAUGACACGCAAAACGCGUGCUCCGUUGAAUGGAGUUUAUCAUG [A47U U55A C87U] reads -2.17; that for GGGUGUUCUCGAUCUAACAAAAAAGACAAAUCUGCCACAAAGCUUGACAGCCUGUUCGGAUGCAGCGGCGGCAGCGUUCGGUGGCGCGAUAGCGCCAACGUUCUCAACUAUGACACGCAAAACGCGUGCUCCGUUGAAUGGAGUUUAUCAUG [A3G C5G G48C A52C C54G A66C C76G], not above -4.2. As for GGAUCUUCUCGAUCUAACAAAAAAGACAAAUCUGCCACAAAGCUUGAGAGCAUCAUCGGAUGCAGAGGCGGCAGCCGUCGGUGGCGCGAUAGCGCCAACGUUCUCAACUAUGACACGCAAAACGCGUGCUCCGCUGAACGGAGUUUAUCAUG [U55A U77G U134C U139C], the “polymerase ribozyme fitness (log ratio)” value is not above -4.2. With GGAUCUUCUCGAUCUAACAAUAAAGACACAUCUGCCACAAAGCUUGAGAGCAUCUUCGGAUGCAGAGGCGGCAGCCUUCGGUGGCGCGAUAACGCCAAUGUUCUCAACUAUGACACUCAAAACGCGUGCGCCGUUGAAUGGAGUUUAUCAUG [A21U A29C G92A C99U G117U U130G], the “polymerase ribozyme fitness (log ratio)” value was -3.76.

In the case of GGAUCUUCUCGAUCUAACAAAAAAGACAAAUCUGCCACAAAGCUUGAGAGCAUCUUCGGAUGCAGAGGCGGCAGCCUUCGGUGGCGCGAUAGCGCCAACGUUCUCAACUAUGAAACGCAAAACGCGUGCUCUCUUGAAUGGAGUUUAUCAUG [C114A C132U G133C], the “polymerase ribozyme fitness (log ratio)” value was -3.96. With GGAUCUUCUCGAUCUAACAAAAAAGACAAAUCUGCCACAAAGCUUGAGAGCAUCUUCGGAUGCAGAGGCGGCAGCCUUCGGUGGCGCGAUAGCGCCAACGUUCCCGACUAUGACACGCAAAACGCGUGCUCCGUUGAAUGGAGUUUAUCAUG [U104C A106G] the figure was -0.701. The result for GGAUCUUCUCGAUCUAACAAAAAAGACAAAUCUGCCACAAAGCUUGAGAGCAUCUUCGGAUGCAGAGGCGGCAGCUUUCGGUGGCGCGAUAGCGCCAACGUUCUCAACUAUGACAGGCAAAACGCGUGCUCCGUUGAAUGGAGUUUAUCAUG [C76U C116G] reads 0.541; that for GGAUCUUCUCGAUCUAACAAAAAAGACAAAUCUGCCACAAACCUUGAGAGCAACUUCGGAUGCAGAGGCGGCAGCCUUCGGUCGCGCGAUAGCGCCAACGUUCUCAACUAUGACACGCAAAACGCUUGCUCCGUUGAAUGGAGUUUAUCAUG [G42C U53A G83C G126U], not above -4.2; that for GGAUCUUCUCGAUCUAACGAAAAAGACAAAUCUGCCACAAAGCUUGAGAGCAUCUUCGGAUGCAGAGGCGGCAGCCUUCGGUGGCGCGAUAGCGCUAACGGUCUCAACUAUGACACGCAAAACGCGUGCUCCGUUGAAUGGAGUUUAUCAUG [A19G C96U U101G], -0.801.

In the case of GGAUCUUUUCGAUCUAACAAAAAAGACAAAUCUGUCACAAAGCUUGAGAGCAUCUUCGGAUGCAGAGGCGGCAGCCUUCAGUAGCGCGAUAGCGCCAACGUGCUCAACUAUGACACGCAAAACGCGUGCUCCGUUGAAUGGAGUCCAUCAUG [C8U C35U G80A G83A U102G U145C U146C], the “polymerase ribozyme fitness (log ratio)” value is not above -4.2.

For the variant GGAUCUUCUCGAUCUAACAAAAAAGACAAAUCUGCCACUAAGCUUGAGAGCAACUCCGGCAGCAGAGGCGGCAGCCUUCGGUGGCUCGGUAGCGCCAACGUUCUCAACUAUGACACGCAAAACGCGUGCUCCGUUGAAUGGAGUUUAUCAUG [A39U U53A U56C A60C U61A G86U A89G], the “polymerase ribozyme fitness (log ratio)” value was -4.17.
